Legend:
Assay in all cases: cell-based or functional assay
[1] = target: Recombinant soluble trimeric human BAFF (furin-cleaved human BAFF 134-285) (human, UniProt Q9Y275 134-285)
[2] = target: Recombinant soluble 60-mer human BAFF (His-HuBAFF 134-285) (human, UniProt Q9Y275 134-285)
[3] = target: Human membrane-bound BAFF (mbBAFF) (human, UniProt Q9Y275 1-285)

Binder	Soluble trimeric huBAFF (50 pM) Neutralization IC50 [1] [pM]	Soluble trimeric huBAFF (50 pM) Neutralization IC90 [1] [pM]	Soluble 60-mer huBAFF (4 pM) Neutralization IC50 [2] [pM]	Soluble 60-mer huBAFF (4 pM) Neutralization IC90 [2] [pM]	Potent mbBAFF Neutralization IC50 [3] [nM]	Potent mbBAFF Neutralization IC90 [3] [nM]
319B8A12 (antibody, V domains shown) VH: KVTLKESGPGILQPSQTLSLTCSFSGFSLRTFGMGVGWIRQPSGKGLEWLAHIWWNDEKYYNPDLKSRLTVSKDSSKNQVFLTIANVDTSDTAPYYCTRVGPSISTVAEGFPYWGQGTLVTVSA VL: DIVMTQSQKFVSTRVGDRVSITCKASQNVGAAVVWYQQKSGQPPKLLIRSASNRYIGVPDRFTGSGSGTDFTLTVSDVQSGDLADYFCQQYSNYPLTFGAGTKLELTR	91	331	8	24		
348A6C1 (antibody, V domains shown) VH: QVTLRESGPGILQPSQTLSLTCSFSGFSLRTFGMGVGWIRQPSGKGLEWLAHIWWNDEKYYNPALKSRLTVSKDSSENQVFLKIANVDTTDTAPYYCARLGPSITTVAEGFPYWGQGTLVTVSA VL: DIVMTQSQKFMSTTVGDRVSITCKASQNVGAAVAWYQQKPGQPPKLLIRSASNRYIGVPDRFTGSGSGTDFTLTVSDVQSVDLADYFCQQYSNYPLTFGAGTKLELTR	110	329	9	29		
1002E8A6 (antibody, V domains shown) VH: EVQLQQSGPELVKPGASVKMSCKASGYTITSYVMHWVKQKPGQGLEWIGYINPNNDGTKYNEKFKGKATLTSDKSSNTAYMELSSLTSEDSAVYYCARGDYSNYFYWYFDVWGAGTTVTVSS VL: DIKMTQSPSSMYASLGERVTITCKASQDINSYLTWFQQKPGKSPETLIYRANRLVSGVPSRFSGSGSGQDYSLTISSLEYEDMGIYSCLQYDEFPYTFGGGTKLEIK	107	824	29	79	0.141	2.09
560H2A7 (antibody, V domains shown) VH: EVKLVESGGGLVQPGGSLSLSCAGSGFTFSDYYMSWVRQPPGKALEWLALIRNKAPGYTTEYSASVKGRFTISRDNSQSILYLQMNALRPEDSATYYCARVLRRADCLDYWGQGTALTVSS VL: not shown	35	324	13	30		
320F9C5 (antibody, V domains shown) VH: QVTLKESGPGILQSSQTLSLTCSFSGFSLRTFGMGVGWIRQPSGKGLEWLAHIWWNDDKSSHPALKSRLTISKDTSKNQVFLKIANVDTAETATYYCVRIGPSITTVAEGFAYWGQGTLVTVSA VL: DIVMTQSQKFMSTTVGDRVSITCKASQNVGSVVAWYQQRPGQSPTLLIYSASNRYTGVPDRFTGSGSGTDFTLTISNMQSEDLADYFCQQYSSYPLTFGAGTKLELK	110	3110	10	24		
363D4A10 (antibody, V domains shown) VH: QVTLKESGPGILQSSQTLSLTCSFSGFSLKTFGMGVGWIRQPSGKGLEWLAHIWWNDDKFYHPALKSRLTISKDTSKNQVFLKIANVDTAETATYYCVRIGPSITTVAEGFAYWGQGTLVTVSA VL: DIVMTQSQKFMSTTVGDRVTITCKASQNVGSAVVWYQQKPGQSPILLIFSASNRYTGVPDRITGSGSGAEFTLTISSVQSEDLAEYFCQQYSSYPLTFGAGTKLELK	21	473	9	23		
352G11A10 (antibody, V domains shown) VH: QVQLQQSGPELVKPGGSVRISCKASGYSLISYYIHWVKQRPGQGLEWIGLTFPGSGNSKFIEKFKGKATLTADTSSNTAYIQLSSLTSEDSAVYYCTRGDFGNYLAYWYFDVWGTGTTVTVSS VL: DIKMTQSPSSIYASLGERVTITCKASQDIHSYLSWFQQKPGKSPKTLMYRTNRLVDGVPSRFSGSGSGQDYSLTIRSLEYEDMGNYYCLQYDEFPYTFGGGAKLEVK	99	444	21	90		
27I21-3C7 (antibody, V domains shown) VH: QVQLQQSGPELVRPGTSVKISCKAPGYIFTSHWMQWVRQRPGQGLEWIGDIFPGSGTTDYNEKFKDKATVTVDRSSSSAYMQFNSLTSEDSAVYFCASGAFDYWGQGTTLTVSS VL: DIQMTQSPSSLSASLGERVSLTCRASQDIGNRLNWLQQAPDGTIKRLIYATSSLDSGVPKRFSGSRSGSDYSLTISSLESEDFVDYYCLQYASYPFTFGTGTKLEIK	55	326	11	33		
1070A6B7 (antibody, V domains shown) VH: QVPLQQPGAEMVRPGASMRLSCKASGYTFPGYWMHWVKQRPRQGLEWIAKIDPSDSETHYNQNFKDKATLTVDKYSNTVYMQLNSLTSEDSAVYYCANEGWDSLTKVWFGWWGQGTLVTVSA VL: DVVMTQTPLSLPVSLGDQASISCRCSQSLVHSNGNTYLHWYLQKPGQSPKLLIYKVSDRFSGVPDRFSGSGSGTDFTLRISRVEADDLGVYFCSQSTHVPLTFGAGTKLELK	43	677	20	56	0.147	1.06
317H2A6 (antibody, V domains shown) VH: QVTLKESGPGILQPSQTLSLTCSFSGFSLRTFGMGVGWIRQPSGKGLEWLAHIWWNGDKYYDPALKSRLTISKDTSENRVFLNIANVDTTDTAPYYCVRIGPSITTVAEGFAYWGQGTLVTVSA VL: DIVMTQSQKFLSTTIGDRVSITCKASQNVGSAVVWYQQKPGQPPKLLITSASNRYSGVPDRFTGSGSGTDFTLTVSNVQSVDLADYFCQQYSNYPLTFGAGTKLELK	97	327	4	13		
323E9D1 (antibody, V domains shown) VH: QVTLKESGPGILQPSQTLSLTCSFSGFSMRTFGMGVGWIRQPSGKGLEWLAHIWWNDEKYYNPDLKSRLTVSKDSSKNQVFLTIANVDTSDTAPYYCTRVGPSISTIAEGFPYWGQGTLVTVSA VL: DIVMTQSQKFVSTRVGDRVSITCKASQNVGAAVVWYQQKSGQPPKLLIRSASNRYIGVPDRFTGSGSGTDFTLTVSDVQSGDLADYFCQQYSNYPLTFGAGTKLELT	148	312	6	23		
551H4D6 (antibody, V domains shown) VH: EVQLQQSGAELVRPGASVELSCTASGFNIKNDYLHWVKQRPEQGLEWIGWIDSANDKTKYAPKFQDKATITADPSSNTAYLQLSSLTSEDTAVYYCTRVGVQDGYYVRDFDYWGQGTTLTVSS VL: DIVLTQSPASLAVSLGQRATMSCRASESVDSYGNSFIHWYQQKPGQPPRLLIYRASNLNSGIPARFSGSGSRTDFTLTISSVEADDVATYYCHQNNEDPRTFGGGTKLEIK	110	257	234	1980		
332C1B12 (antibody, V domains shown) VH: QVQLQQPGAELVKPGASVKLSCKASGYTFTNDNYWMNWMKQRPGRGLEWIGRIRPSDSETHYNQKFTNKATLTVDKSSSTAYIQLSSLTSVDSAVYYCARSWEDLLLRSMEDYFDYWGQGTTLTVSS VL: DIVLTQSPASLPVSLGQRATISCRASKGVSTSSYTFIHWYQQKPGQPPKLLIKYASNLESGVPARFSGSGSGTDFTLNIHPVEEEDVATYYCQHSREFPRTFGGGTKLEIK	99	457	12	40		
606H7F8 (antibody, V domains shown) VH: VQLVESGGGLVKPGGSLKLSCAASGFTFSSYDMSWVRQTPEKRLEWVAAINSYGVNTYYPDTVKDRFTISRDNAKNTLYLQMSSLRSEDTALYYCARLLIGPYYYAMDYWGQGTSVTVSS VL: DIQMTQSPASLSASVGETVTITCRASGNIHNYLAWYQQKQGKSPQLLVYNAKTLADGVPSRFSGSGSGTQFSLKINSLQPEDFGSYYCQHFWSTPYTFGGGTKLEIK	29	378	12	44		
344B9D9 (antibody, V domains shown) VH: EFQLQQSGPELGEPGASVKISCKASGFSFSDYNINWVKQSNGKSLEWIGKVHPKDGTATYNQKFQDKATLTLDQSSSTAYMQLSSLTSEDSAVYYCLPLYYDSLTKILFAYWGQGTLVTVSA VL: DIQMTQSPASLSASVGETVTITCRASGNIHNYLAWYQQKQGKSPQLLVYSAITLADGVPSRFSGSGSETQFSLKINSLQPEDFGIYYCQHFWNTPYTFGGGTKLEIK	102	352	11	32		

Source: US20190309034A1 (Boehringer Ingelheim, published 2019)
